In US20170202915A1 (TUFTS UNIVERSITY, published 2017):

B1: podoplanin (receptor, human, UniProt Q86YL7 23-162, looked up)
chain: ASTGQPEDDTETTGLEGGVAMPGAEDDVVTPGTSEDRYKSGLTTLVATSVNSVTGIRIEDLPTSESTVHAQEQSPSATASNVATSHSTEKVDGDTQTTVEKDGLSTVTLVGIIVGVLLAIGFIGAIIVVVMRKMSGRYSP
modifications: O-glycosylated with alpha2,3-sialyl glycans
notes: whole, on cells; Endogenous protein from LEC lysates in the pulldowns and co-immunoprecipitation; also called PDPN
B2: recombinant full-length galectin-8 (other, UniProt O00214 1-317, looked up)
chain: MMLSLNNLQNIIYNPVIPFVGTIPDQLDPGTLIVIRGHVPSDADRFQVDLQNGSSMKPRADVAFHFNPRFKRAGCIVCNTLINEKWGREEITYDTPFKREKSFEIVIMVLKDKFQVAVNGKHTLLYGHRIGPEKIDTLGIYGKVNIHSIGFSFSSDLQSTQASSLELTEISRENVPKSGTPQLRLPFAARLNTPMGPGRTVVVKGEVNANAKSFNVDLLAGKSKDIALHLNPRLNIKAFVRNSFLQESWGEEERNITSFPFSPGMYFEMIIYCDVREFKVAVNGVHSLEYKHRFKELSSIDTLEINGDIHLLEVRSW
notes: mature; Tandem-repeat lectin with an N-CRD and a C-CRD; also called Gal-8; exogenous Gal-8

Key:
recombinant galectin-3 = target: T1, recombinant galectin-3 (UniProt P17931 2-250); assay: galectin-agarose pulldown from LEC lysates, anti-PDPN western blot (FIG. 7A)
T1 construct: also called Gal-3
Experimental: Bound proteins were examined and were compared to total cell lysates (input) by western blot using anti-PDPN. […] Primary LECs were transfected with control (mock) or two siRNA that targeted different regions of PDPN. Knockdown efficiency was assessed by western blot using anti-PDPN and anti-β-actin antibodies. […] Primary LECs were transfected with control or PDPN siRNA. […] Data are plotted as mean±SEM and analyzed using Student's t test (FIG. 7C and FIG. 7F). *P<0.05, ***P<0.001 vs corresponding control.
Bound proteins were examined with total cell lysates (input) by western blot using an anti-PDPN antibody.

VEGFR-1 = target: T2, VEGFR-1 (UniProt P17948 27-1338, limits assumed); assay: galectin-agarose pulldown from primary LECs, western blot (FIG. 21A)
T2 construct: whole, on cells
T2 sequence (P17948 27-1338 limits assumed): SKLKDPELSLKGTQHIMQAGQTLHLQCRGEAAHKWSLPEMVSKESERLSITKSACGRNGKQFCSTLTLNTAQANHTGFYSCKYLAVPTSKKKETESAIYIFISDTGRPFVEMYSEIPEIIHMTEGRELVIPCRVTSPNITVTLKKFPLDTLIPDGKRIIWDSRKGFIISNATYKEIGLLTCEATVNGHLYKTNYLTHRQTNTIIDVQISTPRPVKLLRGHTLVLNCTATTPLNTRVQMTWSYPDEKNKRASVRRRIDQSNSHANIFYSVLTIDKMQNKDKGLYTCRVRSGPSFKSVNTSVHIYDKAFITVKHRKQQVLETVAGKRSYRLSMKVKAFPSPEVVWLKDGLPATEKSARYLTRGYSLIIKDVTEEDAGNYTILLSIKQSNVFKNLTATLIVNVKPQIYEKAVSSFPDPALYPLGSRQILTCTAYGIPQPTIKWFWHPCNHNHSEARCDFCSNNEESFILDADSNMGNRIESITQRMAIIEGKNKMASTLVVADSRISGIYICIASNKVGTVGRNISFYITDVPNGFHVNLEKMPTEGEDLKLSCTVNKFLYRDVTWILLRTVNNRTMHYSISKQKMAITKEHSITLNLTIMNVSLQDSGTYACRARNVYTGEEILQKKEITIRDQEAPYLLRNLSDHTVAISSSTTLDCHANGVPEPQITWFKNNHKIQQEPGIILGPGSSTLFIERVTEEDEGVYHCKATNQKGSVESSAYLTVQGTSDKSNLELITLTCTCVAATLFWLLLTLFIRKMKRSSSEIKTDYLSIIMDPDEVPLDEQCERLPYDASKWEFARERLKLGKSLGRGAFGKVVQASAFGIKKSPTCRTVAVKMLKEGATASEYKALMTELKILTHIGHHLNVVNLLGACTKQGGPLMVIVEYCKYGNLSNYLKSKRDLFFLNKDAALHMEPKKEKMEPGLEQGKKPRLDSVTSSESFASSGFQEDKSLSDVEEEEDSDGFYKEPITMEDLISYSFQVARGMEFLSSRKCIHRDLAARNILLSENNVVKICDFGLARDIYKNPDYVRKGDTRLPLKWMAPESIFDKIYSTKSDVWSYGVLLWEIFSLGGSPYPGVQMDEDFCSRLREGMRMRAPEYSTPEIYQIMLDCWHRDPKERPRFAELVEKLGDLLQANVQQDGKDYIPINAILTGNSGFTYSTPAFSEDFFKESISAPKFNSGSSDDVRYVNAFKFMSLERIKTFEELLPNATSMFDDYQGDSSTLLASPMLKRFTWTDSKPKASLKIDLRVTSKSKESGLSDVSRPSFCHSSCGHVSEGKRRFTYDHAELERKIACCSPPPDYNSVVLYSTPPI
Experimental: Primary LECs were incubated with agarose beads (control), and galectin-conjugated agarose beads at 4° C. overnight. Unbound proteins were removed and the bound proteins were eluted with 20 μL of 2× Laemmli sample buffer and analyzed and compared to control input by western blotting. […] LEC lysates incubated with unconjugated beads served as a negative control.

T1 sequence (P17931 2-250 limits assumed): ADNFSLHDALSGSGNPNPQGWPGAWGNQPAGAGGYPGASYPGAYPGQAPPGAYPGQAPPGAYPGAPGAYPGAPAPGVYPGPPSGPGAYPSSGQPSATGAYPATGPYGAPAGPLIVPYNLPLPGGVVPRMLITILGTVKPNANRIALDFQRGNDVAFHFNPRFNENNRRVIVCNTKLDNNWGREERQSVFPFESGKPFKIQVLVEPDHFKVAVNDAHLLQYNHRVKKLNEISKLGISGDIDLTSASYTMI

Binder | binding result (recombinant galectin-3) | binding result (VEGFR-1)
B1 | no binding | –
B2 | – | no binding
